To fix the notation:
T1: human GIP receptor (human), P48546
T1 chain: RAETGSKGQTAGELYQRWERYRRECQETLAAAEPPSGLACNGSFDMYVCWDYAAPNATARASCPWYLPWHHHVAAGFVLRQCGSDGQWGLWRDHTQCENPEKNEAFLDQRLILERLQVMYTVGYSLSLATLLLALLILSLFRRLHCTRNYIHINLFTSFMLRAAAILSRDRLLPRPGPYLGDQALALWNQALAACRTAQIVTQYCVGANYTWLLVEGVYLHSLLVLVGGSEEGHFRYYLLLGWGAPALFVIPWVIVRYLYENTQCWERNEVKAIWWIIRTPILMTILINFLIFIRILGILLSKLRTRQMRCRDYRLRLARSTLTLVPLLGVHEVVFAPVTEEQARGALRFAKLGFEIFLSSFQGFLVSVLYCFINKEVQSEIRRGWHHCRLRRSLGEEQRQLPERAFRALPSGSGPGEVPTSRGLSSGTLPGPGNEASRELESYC

This assay has as its target T1, human GIP receptor (human), P48546. Nature of the assay: 125I-GIP displacement, HEK-GIPR membranes.
On to HAEGTFISDYSIAMDKIHQQDFVNWLLAQKPKKIRYS (modifications not checked) [0601GIP4838], for which the % Inh 10 nM turned out to be 34.3%.
Same read-out and setting: to YAEGTFISDYSIAMDKIHQQDFVNWLLAQKPQKIRYS (modifications not checked) [0601GIP4853] belongs 91%.
The molecule YAEGTFISDYSIAMDKIHQQDFVNWLLAQKPQQIRYS (modifications not checked) [0601GIP4855] yielded a % Inh 10 nM of 78.8% and an IC50 of 0.72 nM.
Turning to YAEGTFISDYSIAMDKIHQQDFVNWLLAQKPKKQRYS (modifications not checked) [0601GIP4914], the % Inh 10 nM was 96.3%.
Same read-out and setting: the result for YAEGTFISDYSIAMDKIHQQDFVQWLLAQKPKKIRYS (modifications not checked) [0601GIP4865 (row r89, Gln24)] reads 85.6%; that for YAEGTFISDYSIAMDKIHQQDFVNWLLAQKPKKIQYS (modifications not checked) [0601GIP4913], 92.1%.
On the same count and under the same terms, to YAEGTFISDYSIAMDKIHQQDFVNWLLAQKPKQIRYS (modifications not checked) [0601GIP4854] belongs 93.5%; to YAEGTFISDYSIAMDKIHQQDFVNWLLAQKPKKARYS (modifications not checked) [0601GIP4856], 83.7%; to YAEGTFISDYSIAMDKIHQQDFVNWLLAQKPNKIRYS (modifications not checked) [0601GIP4851], 87%.
In turn, YAEGTFISDYSIAMDKIHQQDFVNQLLAQKPKKIRYS (modifications not checked) [0601GIP4845] returned a % Inh 10 nM of 69.5%.
Still for that read-out and setting: the result for YAEGTFISDYSIAMDKIHQQDFVNWLLAQKPKNIRYS (modifications not checked) [0601GIP4852] reads 90%; that for YAEGTFISDYSIALDKIAQQEFVNWLLAQKPSSGAPPKSK (modifications not checked) [0601GIP5097], 101%.
The molecule YAEGTFISDYSIALEKIRQQEFVNWLLAQKPSSGAPPNSK (modifications not checked) [0601GIP5098] showed a % Inh 10 nM of 97%.

The values are drawn from patent publication US20130137631A1.
